# Experimental data from article PMC11582362.
# B1: full length ADAR1 p110, wild type (FLAG-tagged and HA-tagged copies) [human] / full length ADAR1 p110, wild type (FLAG-tagged and HA-tagged copies) [human] (parent)
# chain 1: MAEIKEKICDYLFNVSDSSALNLAKNIGLTKARDINAVLIDMERQGDVYRQGTTPPIWHLTDKKRERMQIKRNTNSVPETAPAAIPETKRNAEFLTCNIPTSNASNNMVTTEKVENGQEPVIKLENRQEARPEPARLKPPVHYNGPSKAGYVDFENGQWATDDIPDDLNSIRAAPGEFRAIMEMPSFYSHGLPRCSPYKKLTECQLKNPISGLLEYAQFASQTCEFNMIEQSGPPHEPRFKFQVVINGREFPPAEAGSKKVAKQDAAMKAMTILLEEAKAKDSGKSEESSHYSTEKESEKTAESQTPTPSATSFFSGKSPVTTLLECMHKLGNSCEFRLLSKEGPAHEPKFQYCVAVGAQTFPSVSAPSKKVAKQMAAEEAMKALHGEATNSMASDNQPEGMISESLDNLESMMPNKVRKIGELVRYLNTNPVGGLLEYARSHGFAAEFKLVDQSGPPHEPKFVYQAKVGGRWFPAVCAHSKKQGKQEAADAALRVLIGENEKAERMGFTEVTPVTGASLRRTMLLLSRSPEAQPKTLPLTGSTFHDQIAMLSHRCFNTLTNSFQPSLLGRKILAAIIMKKDSEDMGVVVSLGTGNRCVKGDSLSLKGETVNDCHAEIISRRGFIRFLYSELMKYNSQTAKDSIFEPAKGGEKLQIKKTVSFHLYISTAPCGDGALFDKSCSDRAMESTESRHYPVFENPKQGKLRTKVENGEGTIPVESSDIVPTWDGIRLGERLRTMSCSDKILRWNVLGLQGALLTHFLQPIYLKSVTLGYLFSQGHLTRAICCRVTRDGSAFEDGLRHPFIVNHPKVGRVSIYDSKRQSGKTKETSVNWCLADGYDLEILDGTRGTVDGPRNELSRVSKKNIFLLFKKLCSFRYRRDLLRLSYGEAKKAARDYETAKNYFKKGLKDMGYGNWISKPQEEKNFYLCPV
# chain 2: B1 chain 1
# Variants of: B1
# Assay: co-immunoprecipitation (anti-FLAG IP, anti-HA western blot, bands quantified with ImageJ)
# Conditions: HEK293T cells, in the presence of RNases, n = 3, parent: 70, read off a plot
row,response [%],Variant
1,11,chain 1 V452A D453Q W473V C478S
